{"source": "the RNAGym collection of RNA variant scans (doi:10.7554/elife.80360)", "parents": {"B1": {"name": "Hammerhead Ribozyme (parent)", "chain": "ACCGGAUGUGCUUUCCGGUCUGAUGAGUCCGUGAGGACGAAACAG"}}, "data": [{"variants_of": "B1", "experiment": "self-cleavage, relative activity (ratio to wild type); higher = more cleavage; co-transcriptional", "values": [{"variant": "U7A C29G", "self-cleavage": 0.663}, {"variant": "U7A C29U", "self-cleavage": 0.823}, {"variant": "U7A C30A", "self-cleavage": 1.09}, {"variant": "U7A C30G", "self-cleavage": 1.05}, {"variant": "U7A C30U", "self-cleavage": 1.05}, {"variant": "U7A C38A", "self-cleavage": 0.49}, {"variant": "U7A C38G", "self-cleavage": 0.431}, {"variant": "U7A C38U", "self-cleavage": 1.27}, {"variant": "U7A C43A", "self-cleavage": 0.317}, {"variant": "U7A C43G", "self-cleavage": 0.237}, {"variant": "U7A C43U", "self-cleavage": 0.302}, {"variant": "U7A G8A", "self-cleavage": 1.23}, {"variant": "U7A G8C", "self-cleavage": 1.21}, {"variant": "U7A G8U", "self-cleavage": 1.52}, {"variant": "U7A G10A", "self-cleavage": 1.33}, {"variant": "U7A G10C", "self-cleavage": 1.34}, {"variant": "U7A G10U", "self-cleavage": 1.44}, {"variant": "U7A G17A", "self-cleavage": 0.498}, {"variant": "U7A G17C", "self-cleavage": 0.481}, {"variant": "U7A G17U", "self-cleavage": 0.524}, {"variant": "U7A G18A", "self-cleavage": 0.539}, {"variant": "U7A G18C", "self-cleavage": 0.365}, {"variant": "U7A G18U", "self-cleavage": 0.569}, {"variant": "U7A G22A", "self-cleavage": 0.291}, {"variant": "U7A G22C", "self-cleavage": 0.309}, {"variant": "U7A G22U", "self-cleavage": 0.231}, {"variant": "U7A G25A", "self-cleavage": 0.32}, {"variant": "U7A G25C", "self-cleavage": 0.279}, {"variant": "U7A G25U", "self-cleavage": 0.281}, {"variant": "U7A G27A", "self-cleavage": 0.66}, {"variant": "U7A G27C", "self-cleavage": 0.449}, {"variant": "U7A G27U", "self-cleavage": 0.32}, {"variant": "U7A G31A", "self-cleavage": 1.28}, {"variant": "U7A G31C", "self-cleavage": 1.28}, {"variant": "U7A G31U", "self-cleavage": 1.26}, {"variant": "U7A G33A", "self-cleavage": 1.45}, {"variant": "U7A G33C", "self-cleavage": 1.44}, {"variant": "U7A G33U", "self-cleavage": 1.14}, {"variant": "U7A G35A", "self-cleavage": 0.687}, {"variant": "U7A G35C", "self-cleavage": 0.707}, {"variant": "U7A G35U", "self-cleavage": 0.751}, {"variant": "U7A G36A", "self-cleavage": 0.681}, {"variant": "U7A G36C", "self-cleavage": 0.394}, {"variant": "U7A G36U", "self-cleavage": 0.585}, {"variant": "U7A G39A", "self-cleavage": 0.27}, {"variant": "U7A G39C", "self-cleavage": 0.321}, {"variant": "U7A G39U", "self-cleavage": 0.289}, {"variant": "U7A G45A", "self-cleavage": 0.427}, {"variant": "U7A G45C", "self-cleavage": 0.566}, {"variant": "U7A G45U", "self-cleavage": 0.484}, {"variant": "U7A U9A", "self-cleavage": 0.874}, {"variant": "U7A U9C", "self-cleavage": 1.04}, {"variant": "U7A U9G", "self-cleavage": 1.32}, {"variant": "U7A U12A", "self-cleavage": 1.55}, {"variant": "U7A U12C", "self-cleavage": 0.79}, {"variant": "U7A U12G", "self-cleavage": 1.33}, {"variant": "U7A U13A", "self-cleavage": 1.42}, {"variant": "U7A U13C", "self-cleavage": 1.43}, {"variant": "U7A U13G", "self-cleavage": 1.29}, {"variant": "U7A U14A", "self-cleavage": 1.15}, {"variant": "U7A U14C", "self-cleavage": 1.17}, {"variant": "U7A U14G", "self-cleavage": 1.14}, {"variant": "U7A U19A", "self-cleavage": 0.377}, {"variant": "U7A U19C", "self-cleavage": 0.402}, {"variant": "U7A U19G", "self-cleavage": 0.25}, {"variant": "U7A U21A", "self-cleavage": 0.359}, {"variant": "U7A U21C", "self-cleavage": 0.628}, {"variant": "U7A U21G", "self-cleavage": 0.319}, {"variant": "U7A U24A", "self-cleavage": 1.26}, {"variant": "U7A U24C", "self-cleavage": 0.976}, {"variant": "U7A U24G", "self-cleavage": 0.882}, {"variant": "U7A U28A", "self-cleavage": 0.77}, {"variant": "U7A U28C", "self-cleavage": 1.26}, {"variant": "U7A U28G", "self-cleavage": 0.758}, {"variant": "U7A U32A", "self-cleavage": 1.38}, {"variant": "U7A U32C", "self-cleavage": 0.797}, {"variant": "U7A U32G", "self-cleavage": 1.07}, {"variant": "U7C", "self-cleavage": 1.05}, {"variant": "U7C A23C", "self-cleavage": 0.356}, {"variant": "U7C A23G", "self-cleavage": 0.454}, {"variant": "U7C A23U", "self-cleavage": 0.339}, {"variant": "U7C A26C", "self-cleavage": 0.373}, {"variant": "U7C A26G", "self-cleavage": 0.305}, {"variant": "U7C A26U", "self-cleavage": 0.48}, {"variant": "U7C A34C", "self-cleavage": 1.16}, {"variant": "U7C A34G", "self-cleavage": 0.863}, {"variant": "U7C A34U", "self-cleavage": 0.995}, {"variant": "U7C A37C", "self-cleavage": 0.828}, {"variant": "U7C A37G", "self-cleavage": 0.771}, {"variant": "U7C A37U", "self-cleavage": 0.621}, {"variant": "U7C A40C", "self-cleavage": 0.418}, {"variant": "U7C A40G", "self-cleavage": 0.382}, {"variant": "U7C A40U", "self-cleavage": 0.373}, {"variant": "U7C A41C", "self-cleavage": 0.34}, {"variant": "U7C A41G", "self-cleavage": 0.322}, {"variant": "U7C A41U", "self-cleavage": 0.336}, {"variant": "U7C A42C", "self-cleavage": 0.3}, {"variant": "U7C A42G", "self-cleavage": 0.306}, {"variant": "U7C A42U", "self-cleavage": 0.312}, {"variant": "U7C A44C", "self-cleavage": 0.631}, {"variant": "U7C A44G", "self-cleavage": 1.13}, {"variant": "U7C A44U", "self-cleavage": 0.582}, {"variant": "U7C C11A", "self-cleavage": 1.37}, {"variant": "U7C C11G", "self-cleavage": 1.37}, {"variant": "U7C C11U", "self-cleavage": 0.433}, {"variant": "U7C C15A", "self-cleavage": 0.737}, {"variant": "U7C C15G", "self-cleavage": 0.667}, {"variant": "U7C C15U", "self-cleavage": 0.995}, {"variant": "U7C C16A", "self-cleavage": 0.738}, {"variant": "U7C C16G", "self-cleavage": 0.487}, {"variant": "U7C C16U", "self-cleavage": 1.06}, {"variant": "U7C C20A", "self-cleavage": 0.5}, {"variant": "U7C C20G", "self-cleavage": 0.306}, {"variant": "U7C C20U", "self-cleavage": 0.492}, {"variant": "U7C C29A", "self-cleavage": 0.685}, {"variant": "U7C C29G", "self-cleavage": 0.514}, {"variant": "U7C C29U", "self-cleavage": 0.992}, {"variant": "U7C C30A", "self-cleavage": 0.736}, {"variant": "U7C C30G", "self-cleavage": 1.09}, {"variant": "U7C C30U", "self-cleavage": 0.842}, {"variant": "U7C C38A", "self-cleavage": 0.702}, {"variant": "U7C C38G", "self-cleavage": 0.533}, {"variant": "U7C C38U", "self-cleavage": 0.929}, {"variant": "U7C C43A", "self-cleavage": 0.309}, {"variant": "U7C C43G", "self-cleavage": 0.346}, {"variant": "U7C C43U", "self-cleavage": 0.25}, {"variant": "U7C G8A", "self-cleavage": 0.95}, {"variant": "U7C G8C", "self-cleavage": 0.961}, {"variant": "U7C G8U", "self-cleavage": 1.38}, {"variant": "U7C G10A", "self-cleavage": 1.02}, {"variant": "U7C G10C", "self-cleavage": 0.781}, {"variant": "U7C G10U", "self-cleavage": 1.12}, {"variant": "U7C G17A", "self-cleavage": 0.32}, {"variant": "U7C G17C", "self-cleavage": 0.314}, {"variant": "U7C G17U", "self-cleavage": 0.625}, {"variant": "U7C G18A", "self-cleavage": 0.438}, {"variant": "U7C G18C", "self-cleavage": 0.342}, {"variant": "U7C G18U", "self-cleavage": 0.61}, {"variant": "U7C G22A", "self-cleavage": 0.387}, {"variant": "U7C G22C", "self-cleavage": 0.338}, {"variant": "U7C G22U", "self-cleavage": 0.289}, {"variant": "U7C G25A", "self-cleavage": 0.402}, {"variant": "U7C G25C", "self-cleavage": 0.319}, {"variant": "U7C G25U", "self-cleavage": 0.312}, {"variant": "U7C G27A", "self-cleavage": 0.814}, {"variant": "U7C G27C", "self-cleavage": 0.598}, {"variant": "U7C G27U", "self-cleavage": 0.412}, {"variant": "U7C G31A", "self-cleavage": 1.12}, {"variant": "U7C G31C", "self-cleavage": 0.803}, {"variant": "U7C G31U", "self-cleavage": 1.1}, {"variant": "U7C G33A", "self-cleavage": 1.15}, {"variant": "U7C G33C", "self-cleavage": 0.963}, {"variant": "U7C G33U", "self-cleavage": 0.755}, {"variant": "U7C G35A", "self-cleavage": 0.732}, {"variant": "U7C G35C", "self-cleavage": 0.849}, {"variant": "U7C G35U", "self-cleavage": 0.439}, {"variant": "U7C G36A", "self-cleavage": 0.421}, {"variant": "U7C G36C", "self-cleavage": 0.348}, {"variant": "U7C G36U", "self-cleavage": 0.422}, {"variant": "U7C G39A", "self-cleavage": 0.469}, {"variant": "U7C G39C", "self-cleavage": 0.331}, {"variant": "U7C G39U", "self-cleavage": 0.426}, {"variant": "U7C G45A", "self-cleavage": 0.653}, {"variant": "U7C G45C", "self-cleavage": 0.454}, {"variant": "U7C G45U", "self-cleavage": 0.622}, {"variant": "U7C U9A", "self-cleavage": 0.524}, {"variant": "U7C U9C", "self-cleavage": 1.28}]}]}
